In patent US8026218 (UNIVERSITY OF ARIZONA, dated 2011):
Bridge positions count the residues as written; N and C are the ends. Square brackets hold non-standard residues; d marks the D form. Primed or numbered codes have the meaning given here. Ends that are not written are not given here. * marks the point of attachment. NHBn(CF3)2 = C-terminal amide NH-Bn(CF3)2, a benzyl group carrying two CF3; NH(3,5-(CF3)2-benzyl) = FC(F)(F)c1cc(CN*)cc(C(F)(F)F)c1; NMeBn(3,5-(CF3)2) = CN(Cc1cc(C(F)(F)F)cc(C(F)(F)F)c1)*; OBzl(3,5-(CF3)2) = FC(F)(F)c1cc(CO*)cc(C(F)(F)F)c1; Glc″ = glucosyl on the serine side-chain oxygen; NH‑Bn(CF3)2 = C-terminal Bn(CF3)2 amide; OBn(CF3)2 = C-terminal Bn(CF3)2 ester; Dmt = Cc1cc(O)cc(C)c1C[C@H](N)C(=O)O; NMe(benzyl) = CN(Cc1ccccc1)*; Nle = CCCC[C@H](N)C(=O)O; Aib = CC(C)(N)C(=O)O

B1: DmtDAlaGlyPheNleProLeuTrpNHBn(CF3)2 (TY050) (peptide)
peptide: YAGFXPLW
modifications: Dmt (2',6'-dimethyl-L-tyrosine) at 1; D-Ala at 2; Nle at 5 (X); C-terminal NH-3,5-Bn(CF3)2 amide
B2: Tyr[DPenGlyPhePen]ProLeuTrpNHBn(CF3)2 (TY046) (peptide)
peptide: YXGFXPLW
modifications: D-Pen (D-penicillamine) at 2 (X); Pen (L-penicillamine) at 5 (X); disulfide 2-5 (cyclic); C-terminal NH-Bn(CF3)2 amide

Tests used:
human δ opioid receptor [1] = target: T1, human δ opioid receptor (human, UniProt P41143 1-372); test: radioligand competition vs [3H]DPDPE, membranes of hDOR cells
T1 construct: whole, on cells; Used as crude membrane preparations of the transfected cells; also called hDOR; DOR
T1 sequence (P41143 whole entry, stated change not applied): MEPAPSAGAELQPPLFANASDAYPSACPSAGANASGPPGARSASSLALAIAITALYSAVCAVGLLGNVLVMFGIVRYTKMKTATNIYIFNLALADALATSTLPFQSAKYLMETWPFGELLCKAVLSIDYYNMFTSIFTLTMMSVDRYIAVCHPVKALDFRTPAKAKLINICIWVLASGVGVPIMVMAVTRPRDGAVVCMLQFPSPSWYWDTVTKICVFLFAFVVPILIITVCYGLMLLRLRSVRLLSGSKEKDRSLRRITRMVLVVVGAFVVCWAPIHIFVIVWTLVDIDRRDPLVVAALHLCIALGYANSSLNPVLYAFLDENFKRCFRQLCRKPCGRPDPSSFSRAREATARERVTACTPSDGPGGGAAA

rat µ opioid receptor [2] = target: T2, rat µ opioid receptor (rat, UniProt P33535 1-398); test: cell-based or functional assay
T2 sequence (P33535 whole entry): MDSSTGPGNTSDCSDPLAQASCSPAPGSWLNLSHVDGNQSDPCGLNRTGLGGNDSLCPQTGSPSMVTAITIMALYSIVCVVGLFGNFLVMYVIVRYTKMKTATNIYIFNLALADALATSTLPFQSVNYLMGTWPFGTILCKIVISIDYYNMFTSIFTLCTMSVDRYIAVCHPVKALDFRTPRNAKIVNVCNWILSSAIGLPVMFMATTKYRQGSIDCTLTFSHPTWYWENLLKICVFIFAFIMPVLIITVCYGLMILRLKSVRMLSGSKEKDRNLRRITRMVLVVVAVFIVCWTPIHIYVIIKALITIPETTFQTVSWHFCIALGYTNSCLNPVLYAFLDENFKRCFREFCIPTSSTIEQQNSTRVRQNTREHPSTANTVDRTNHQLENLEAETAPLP

rat NK1 receptor = target: T3, rat NK1 receptor (rat, UniProt P14600 1-407); test: radioligand competition vs [3H]substance P, membranes of rNK1 CHO cells
T3 construct: whole, on cells; Used as membrane preparations of transfected CHO cells; also called rNK1; rat neurokinin-1 receptor
T3 sequence (P14600 whole entry): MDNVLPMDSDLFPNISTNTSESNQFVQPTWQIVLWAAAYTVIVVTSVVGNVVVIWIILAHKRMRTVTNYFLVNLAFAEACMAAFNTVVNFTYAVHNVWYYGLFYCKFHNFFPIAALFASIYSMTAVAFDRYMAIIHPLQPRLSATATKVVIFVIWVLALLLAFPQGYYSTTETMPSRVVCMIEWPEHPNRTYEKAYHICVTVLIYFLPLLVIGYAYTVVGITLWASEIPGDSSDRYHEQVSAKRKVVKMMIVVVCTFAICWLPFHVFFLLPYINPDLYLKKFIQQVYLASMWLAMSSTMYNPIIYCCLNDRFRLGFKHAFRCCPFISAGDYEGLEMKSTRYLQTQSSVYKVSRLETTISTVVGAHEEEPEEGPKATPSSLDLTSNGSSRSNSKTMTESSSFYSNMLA

human NK1 receptor = target: T4, human NK1 receptor (human, UniProt P25103 1-407); test: radioligand competition vs [3H]substance P, membranes of hNK1 CHO cells
T4 construct: whole, on cells; Used as membrane preparations of transfected CHO cells; also called hNK1; human neurokinin-1 receptor
T4 sequence (P25103 whole entry): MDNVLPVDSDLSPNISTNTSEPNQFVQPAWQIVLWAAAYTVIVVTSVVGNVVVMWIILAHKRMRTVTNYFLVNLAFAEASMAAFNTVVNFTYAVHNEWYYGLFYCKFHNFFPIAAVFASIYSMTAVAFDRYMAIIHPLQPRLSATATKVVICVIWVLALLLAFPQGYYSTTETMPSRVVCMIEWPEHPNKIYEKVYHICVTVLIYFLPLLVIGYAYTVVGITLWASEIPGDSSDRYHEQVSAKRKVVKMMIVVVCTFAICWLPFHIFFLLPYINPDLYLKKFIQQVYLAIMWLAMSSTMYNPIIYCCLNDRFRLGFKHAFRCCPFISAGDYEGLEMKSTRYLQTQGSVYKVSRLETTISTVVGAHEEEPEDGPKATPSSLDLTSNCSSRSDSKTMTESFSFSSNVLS

[3] = target: µ opioid receptor of the guinea pig isolated ileum (guinea pig, UniProt P97266 1-98); test: cell-based or functional assay
Sequence of µ opioid receptor of the guinea pig isolated ileum (P97266 whole entry): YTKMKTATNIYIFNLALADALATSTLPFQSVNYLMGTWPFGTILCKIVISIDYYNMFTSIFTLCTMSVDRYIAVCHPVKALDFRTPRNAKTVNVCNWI

guinea pig NK1 receptor = guinea pig NK1 receptor (guinea pig, UniProt P30547 1-407); test: cell-based or functional assay
Sequence of guinea pig NK1 receptor (P30547 whole entry): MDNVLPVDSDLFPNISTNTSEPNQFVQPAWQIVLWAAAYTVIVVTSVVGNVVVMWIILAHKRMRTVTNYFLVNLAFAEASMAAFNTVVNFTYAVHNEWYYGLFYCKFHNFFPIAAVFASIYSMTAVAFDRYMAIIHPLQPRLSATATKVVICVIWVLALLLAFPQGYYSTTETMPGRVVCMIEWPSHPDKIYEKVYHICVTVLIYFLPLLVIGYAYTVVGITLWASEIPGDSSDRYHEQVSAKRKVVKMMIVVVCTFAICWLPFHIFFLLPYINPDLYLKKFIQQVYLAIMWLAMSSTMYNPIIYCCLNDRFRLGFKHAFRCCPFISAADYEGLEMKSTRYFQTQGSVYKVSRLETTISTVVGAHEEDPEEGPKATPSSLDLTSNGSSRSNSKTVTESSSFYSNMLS

human δ opioid receptor [4] = target: T1, human δ opioid receptor; test: cell-based or functional assay
rat µ opioid receptor [5] = target: T2, rat µ opioid receptor; test: radioligand competition vs [3H]DAMGO, membranes of rMOR cells

| Binder | Ki (human δ opioid receptor [1]) | GTP binding rMOR EC50 (rat µ opioid receptor [2]) | GTP binding rMOR Emax (rat µ opioid receptor [2]) | Ki (rat NK1 receptor) | Ki (human NK1 receptor) | GPI/LMMP opioid(mu) agonist IC50 [3] | GPI/LMMP SP antagonist Ke (guinea pig NK1 receptor) | GTP binding hDOR EC50 (human δ opioid receptor [4]) | GTP binding hDOR Emax (human δ opioid receptor [4]) | Ki (rat µ opioid receptor [5]) |
| --- | --- | --- | --- | --- | --- | --- | --- | --- | --- | --- |
| Y[dA]GFM[dP]LW-{OBzl(3,5-(CF3)2)} [TyrDAlaGlyPheMetDProLeuTrpOBn(CF3)2 (TY024)] | 13.2 nM | 123 nM | 28% | – | – | – | – | – | – | – |
| [Dmt][dA]GFMPLW-{OBzl(3,5-(CF3)2)} [DmtDAlaGlyPheMetProLeuTrpOBn(CF3)2 (TY033)] | 0.22 nM | – | – | 0.96 nM | 1.2 nM | 100 nM | 24.5 nM | 0.73 nM | 200% | – |
| MPLW-{NHBn(CF3)2} [MetProLeuTrpNHBn(CF3)2 (TY051)] | – | – | – | 62 nM | 0.922 nM | – | – | – | – | 866 nM |
| Y[dA]GFPLW-{OBzl(3,5-(CF3)2)} [TyrDAlaGlyPheProLeuTrpOBn(CF3)2 (TY001)] | – | – | – | – | 0.0023 nM | – | – | – | – | – |
| B1 | – | – | – | – | 0.075 nM | – | – | – | – | – |
| Y[dC]GF[Nle]P[dC]W-{NH(3,5-(CF3)2-benzyl)} (disulfide 2-7) [Tyr[DCysGlyPheNleProDCys]TrpNHBn(CF3)2 (TY038)] | – | – | – | – | – | 3 % at 1 uM | 12 nM | – | – | – |
| Y[dA]GFMPLW-{OBzl(3,5-(CF3)2)} [TyrDAlaGlyPheMetProLeuTrpOBn(CF3)2 (TY005)] | 2.8 nM | – | 45.6% | 0.29 nM | – | 359 nM | 24.7 nM | 2.9 nM | 47.6% | – |
| Y[dA]GFFPLW-{NMeBn(3,5-(CF3)2)} [TyrDAlaGlyPhePheProLeuTrpNMeBn(CF3)2 (TY017)] | 26.5 nM | 349 nM | 62.4% | 0.57 nM | 0.213 nM | – | – | 122 nM | 125% | 74.7 nM |
| Y[dC]GFCPLW-{NH(3,5-(CF3)2-benzyl)} (disulfide 2-5, also called [D-Cys2, Cys5]) [Tyr[DCysGlyPheCys]ProLeuTrpNHBn(CF3)2 (TY039)] | 10.7 nM | 118 nM | 20% | 556 nM | – | 10.1 % at 1 uM | 434 nM | 50.9 nM | 37% | – |
| Y[dC]GFMPLW-{OBzl(3,5-(CF3)2)} [TyrDCysGlyPheMetProLeuTrpOBn(CF3)2 (TY031)] | 55.4 nM | – | – | 7.06 nM | 0.847 nM | – | – | – | – | 172 nM |
| Y[dA]GFMALW-{OBzl(3,5-(CF3)2)} [TyrDAlaGlyPheMetAlaLeuTrpOBn(CF3)2 (TY020)] | – | – | 51.4% | – | – | – | – | – | 26.4% | – |
| Y[dA]GFFPLW-{NHBn(CF3)2} [TyrDAlaGlyPhePheProLeuTrpNHBn(CF3)2 (TY015)] | 12.5 nM | 176 nM | 64.4% | 0.98 nM | 0.192 nM | – | – | 81.4 nM | 142% | 53.7 nM |
| Y[dA]GFPLW-{NMe(benzyl)} [TyrDAlaGlyPheProLeuTrpNMeBn (TY010)] | – | – | – | 267 nM | 100 nM | – | – | – | – | – |
| Y[dA]GFMPLW-{NMe(benzyl)} [TyrDAlaGlyPheMetProLeuTrpNMeBn (TY026)] | 0.32 nM | – | – | 44.5 nM | – | – | – | 8.9 nM | 93% | – |
| YXGFXPLW (D-Pen at 2 and 5 (X); disulfide 2-5 (cyclic); C-terminal NH-Bn(CF3)2 amide) [Tyr[DPenGlyPheDPen]ProLeuTrpNHBn(CF3)2 (TY049)] | – | – | 25% | 4.54 nM | 0.18 nM | – | – | – | – | 2050 nM |
| B2 | 1.7 nM | – | – | – | 0.0053 nM | – | – | 17.2 nM | 15% | 2330 nM |
| Y[dA]GFM[Aib]LW-{OBn(CF3)2} [TyrDAlaGlyPheMetAibLeuTrpOBn(CF3)2 (TY022)] | – | 100 nM | 32% | – | – | – | – | – | 28% | – |
| YAGFXPLW (D-Ala at 2; Nle (norleucine) at 5 (X); C-terminal O-3,5-Bn(CF3)2 ester) [TyrDAlaGlyPheNleProLeuTrpOBn(CF3)2 (TY018)] | 1.8 nM | – | – | – | 0.14 nM | 372 nM | 7.93 nM | 4 nM | 131% | – |
| Y[dA]GF[Nle]S(Glc″)LW-{NH‑Bn(CF3)2} [TyrDAlaGlyPheNleSer(OGlu)LeuTrpNHBn(CF3)2 (TY044)] | – | 380 nM | 85% | – | 1.3 nM | – | – | – | – | 3370 nM |
